# Measured values published in patent publication US7449553B2, “Antibody that binds ceramidase” (Takara Bio Inc., priority 1999, dated 2008).
# “Also recorded” adds a separate entry of the source.
# B1: ceramidase: isolated and purified neutral/alkaline ceramidase derived from a mouse liver, mature form SEQ ID NO: 14 (protein, listed as Mus sp.)
# chain: FSGYYIGVGRADCTGQVSDINLMGYGKNGQNARGLLTRLFSRAFILADPDGSNRMAFVSVELCMISQRLRLEVLKRLESKYGSLYRRDNVILSAIHTHSGPAGFFQYTLYILASEGFSNRTFQYIVSGIMKSIDIAHTNLKPGKIFINKGNVANVQINRSPSSYLLNPQSERARYSSNTDKEMLVLKLVDLNGEDLGLISWFAIHPVSMNNSNHFVNSDNMGYAAYLFEQEKNKGYLPGQGPFVAGFASSNLGDVSPNILGPHCVNTGESCDNDKSTCPNGGPSMCMASGPGQDMFESTHIIGRIIYQKAKELYASASQEVTGPVLAAHQWVNMTDVSVQLNATHTVKTCKPALGYSFAAGTIDGVSGLNITQGTTEGDPFWDTLRDQLLGKPSEEIVECQKPKPILLHSGELTIPHPWQPDIVDVQIVTVGSLAIAAIPGELTTMSGRRFREAIKKEFALYGMKDMTVVIAGLSNVYTHYITTYEEYQAQRYEAASTIYGPHTLSAYIQLFRDLAKAIATDTVANMSSGPEPPFFKNLIASLIPNIADRAPIGKHFGDVLQPAKPEYRVGEVVEVIFVGANPKNSAENQTHQTFLTVEKYEDSVADWQIMYNDASWETRFYWHKGILGLSNATIYWHIPDTAYPGIYRIRYFGHNRKQELLKPAVILAFEGISSPFEVVTT
# Assay: Temperature stability of the ceramidase
# Assay type: physicochemical
# Conditions: 20 mM Tris-HCl pH 7.5, 0.1% polidocanol (Lubrol PX)
# Protocol: The activity of the ceramidase can be determined in accordance with the method described, for instance, in J. Biol. Chem., 275, 3462-3468 (2000). Concretely, a reaction mixture prepared by dissolving 550 pmol of 12-((N-(7-nitrobenz-2-oxa-1,3-diazol-4-yl)amino)dodecanoyl)sphingosine, hereinafter referred to as C12-NBD-ceramide [Anal. Biochem., 263, 183-188 (1998)], 1.0% (W/V) sodium cholate and a suitable amount of an enzyme (ceramidase) in 20 μl of 25 mM Tris-hydrochloric acid buffer (pH 7.5) is incubated at 37° C. for 30 minutes. The reaction mixture is incubated in a boiling water bath for 5 minutes, thereby stopping the reaction. The resulting reaction mixture is further evaporated to dryness under reduced pressure. The dried solid is dissolved in chloroform/methanol=2/1 (V/V), and developed by silica gel thin layer chromatography (developing solvent: chloroform/methanol/25% aqueous ammonia=90/20/0.5 (V/V/V)). Thereafter, the 12-(N-7-nitrobenz-2-oxa-1,3-diazol-4-yl)amino)dodecanoyl acid, hereinafter referred to as C12-NBD-fatty acid generated by the above-mentioned reaction is quantified by using CS-9300 Chromatoscanner (manufactured by Shimadzu Corporation) at an excitation wavelength of 475 nm and a fluorescent wavelength 525 nm. […]
molecule,measurement,value
B1,Activity after treatment at 37° C. for 24 hours,reduced activity not being observed; also recorded: does not show the reduced activity
same,"Activity after treatment at 60° C. for 1 hour, relative to activity before the treatment",about 30%
